Measurements: paper PMC12521494
Where “and” joins values, the source holds several entries; their conditions need not be identical. Equal entries are not always repeated.

Molecular target: NbNRC2 (Nicotiana benthamiana)
Test: native gel or EMSA

NbNRC2 (receptor)
stoichiometry N: 2 and 4
